In US9382311:

Biological target: T1, YU2 gp120 (HIV-1, UniProt P35961 32-498)
T1 construct: domain: gp120
Assay: ELISA (FIG. 3)

B1: VRC-PG-04 (antibody, V domains shown)
VH: QVQLVQSGSGVKKPGASVRVSCWTSEDIFERTELIHWVRQAPGQGLEWIGWVKTVTGAVNFGSPDFRQRVSLTRDRDLFTAHMDIRGLTQGDTATYFCARQKFYTGGQGWYFDLWGRGTLIVVSS
VL: EIVLTQSPGTLSLSPGETASLSCTAASYGHMTWYQKKPGQPPKLLIFATSKRASGIPDRFSGSQFGKQYTLTITRMEPEDFARYYCQQLEFFGQGTRLEIR
notes: also called PGV04
binding result: binds
